{
  "source": "patent US20200002421A1",
  "about": "“ANTI-B7-H3 ANTIBODIES AND ANTIBODY DRUG CONJUGATES” (AbbVie Inc., priority 2016, published 2020)",
  "molecules": {"B1": {"name": "chAb16: chimeric anti-B7-H3 antibody huIgG1/k, parental hybridoma Ab16; VH SEQ ID NO: 72, VL SEQ ID NO: 76 (antibody, V domains shown)", "VH": "EVKLLESGGGLVQPGGSLKLSCAASGFDFSRYWMSWVRQAPGKGLEWIGEINPDSSTINYTPSLKDKFIISRDNAKNTLYLQMSKVRSEDTALYYCARPGFGNYIYAMDYWGQGTSVTVSS", "VL": "DIQMTQTTSSLSASLGDRVTINCRASQDISNFLNWYQQKPDGTVKLLIYYTSRLYLGVPSRFSGSGSGTDYSLTISNLEQEDIATYFCQQGNTLPPTFGGGTKLEIK", "modifications": "human IgG1/kappa constant regions; Synthetic chAb16 VH amino acid sequence; Synthetic chAb16 VL amino acid sequence"}},
  "key": {"[1]": {"test_system": "HCC38 cell line", "test": "In vitro cell viability assay (CellTiter-Glo), HCC38", "assay_type": "cell-based, human", "details": "conjugated to synthon CZ", "protocol": "The tumor cell lines HCC38 (breast cancer), NCI-H1650 (NSCLC) and NCI-H847 (small cell lung cancer cell line) were obtained from American Type Culture Collection (ATCC). Cells were grown in 96-well culture plates using recommended growth media overnight at a density of 5×10^3 (HCC38) or 20×10^3 (NCI-H847) or 40×10^3 (NCI-H1650) per well. The following day, treatments were added in fresh media to triplicate wells. Cellular viability was determined 5 days later using the CellTiter-Glo Luminescent Cell Viability Assay kit (Promega), as directed in the manufacturer's protocol. Cell viability was assessed as percentage of control untreated cells."}, "[2]": {"test": "Conjugation observation (precipitation after conjugation, Method A)", "assay_type": "physicochemical", "details": "conjugated to synthon CZ", "protocol": "Table 6 provides cell surface binding and cytotoxicity activity of anti-B7-H3 chimera ADCs against breast cancer cell HCC38 expressing human B7-H3.\nA solution of Bond-Breaker™ tris(2-carboxyethyl)phosphine (TCEP) solution (10 mM, 0.017 mL) was added to a solution of antibody (10 mg/mL, 1 mL) preheated to 37° C. The reaction mixture was kept at 37° C. for 1 hour. The solution of reduced antibody was added to a solution of synthon (3.3 mM, 0.160 mL in DMSO) and gently mixed for 30 minutes. The reaction solution was loaded onto a desalting column (PD10, washed with Dulbecco's phosphate-buffered saline [DPBS] 3× before use), followed by DPBS (3 mL). The purified ADC solution was filtered through a 0.2 micron, low protein-binding 13 mm syringe-filter and stored at 4° C."}},
  "data": [
    {"molecule": "B1", "values": [
      {"measurement": "cytotoxicity in cells expressing human B7-H3 / HCC38 cell line (in words)", "setting": "[1]", "value": "weak cytotoxicity"},
      {"measurement": "precipitation following conjugation to synthon CZ (in words)", "setting": "[2]", "value": "precipitated"}
    ]}
  ]
}
